# Source: patent US7157616B2, “Method of selecting non-diabetogenic milk or milk products and milk or milk products so selected” (priority 1994, dated 2007)
# Changes are numbered by the printed parent chain. Where two headings read alike, the source gives them in different places. Marks after values point to notes of the source that are not given here. Ends that are not written are not given here.
# B1: bovine β-casein A1 hexapeptide Pro-63 to Asn-68 (Pro-Gly-Pro-Ile-His-Asn) (peptide)
# peptide: PGPIHN
# modifications: also: tritiated
# B2: bovine β-casein A2 hexapeptide Pro-63 to Asn-68 (peptide)
# peptide: PGPIPN
# modifications: also: tritiated
# B3: β-casein A1 variant: bovine β-casein A1 variant (SEQ ID NO: 2); casein made from milk of β-casein A1A1 phenotype cows (protein)
# chain: RELEELNVPGEIVESLSSSEESITRIDKKIEKFQSEEQQQTEDELQDKIHPFAQTQSLVYPFPGPIHNSLPQNIPPLTQTPVVVPPFLQPEVMGVSKVKEAMAPKHKEMPFPKYPVQPFTESQSLTLTDVENLHLPPLLLQSWMHQPHQPLPPTVMFPPQSVLSLSQSKVLPVPEKAVPYPQRDMPIQAFLLYQQPVLGPVRGPFPIIV
# B4: β-casein A2 variant: bovine β-casein A2 variant; casein made from milk of β-casein A2A2 phenotype cows (protein)
# chain: B3 chain with H67P
# Assays:
# [1] = test system: normal human macrophage; experiment: Binding of tritiated hexapeptides to normal PB monocyte/macrophages; conditions: for CPM bound: +Glucose, NaN3, Captopril, Benzylsuccinate, Elastatinal
# From the text: (§1) Using the method described by M'Hamiel Jaziri et al (1992) the human macrophage binding of the bovine peptides Pro-63 to Asn-68 (from the β-casein A1 and A2 variant sequences) were studied and compared with the binding of the peptide Val-54 Tyr-59 from human β-peptide to each of a normal human macrophage and a prediabetic human macrophage.
# [2] = test system: prediabetic human macrophage; experiment: Binding of tritiated hexapeptides to prediabetic PB monocyte/macrophages; conditions: for CPM bound: +Glucose, NaN3, Captopril, Benzylsuccinate, Elastatinal
# From the text: as §1
# [3] = test system: human macrophage; conditions: cited from earlier work
# [4] = test system: murine macrophages; conditions: cited from earlier work
# [5] = biological target: binding site on prediabetic human PB monocyte/macrophages (human); experiment: binding of tritiated hexapeptide to PB monocyte/macrophages
# [6] = biological target: binding site on normal human PB monocyte/macrophages (human); experiment: as above
# [7] = biological target: binding site on prediabetic human PB monocyte/macrophages (human); experiment: binding of tritiated hexapeptide to PB monocyte/macrophages; reference bovine A1 peptide
# [8] = biological target: binding site on normal human PB monocyte/macrophages (human); experiment: as above
# [9] = test system: NOD mice; experiment: Diabetes incidence in NOD mice fed β-casein A1/A2 variants, whey or Bos indicus casein as 10% additions to Prosobee; assay type: in vivo, mouse; conditions: for Number of Animals Developing Diabetes by 250 days / Percentage of animals developing diabetes by 250 days: 10% addition to Prosobee infant formula from weaning
# From the text: Similar groups of mice were fed a diet of the soy infant formula Prosobee™ and 10% W/W of: […]
# d) Bos indicus casein, or
# e) a 50/50 mixture of β-casein A1 variant/A2 variant.
# The β-casein A1 variant precipitated diabetes in […] cases, the A2 variants in no cases and the A1/A2 mixture in 4 of 20 cases. The result mid-way between the […] results is consistent with there being no interaction between A1 and A2.
# Lactic casein was manufactured in the New Zealand Dairy Research Institute Pilot Plant from the β-casein A1A1 and A2A2 phenotype bulk milks using methods essentially identical to those used in a standard New Zealand commercial lactic casein manufacturing dairy factory (see Muller, 1986). These caseins together with other constituents were then used in the feeding trials as described in Examples 2 and 3.
molecule,measurement,setting,value
Bovine A2: tritiated bovine hexapeptide Pro-63 to Asn-68 from the β-casein A2 variant sequence (proline at position 67) (PGPIPN; also: tritiated),CPM bound,[1]; NORMAL PBM (N = 3),2900 CPM
same,CPM bound,[2]; PREDIABETIC PBM (N = 3),2750 CPM
Human – tritiated hexapeptide Val-54 to Tyr-59 from human β-casein (VEPIPY; also: tritiated) [reference compound],Ratio */** (Human / Bovine A1 CPM),[1]; NORMAL PBM (N = 3),1.2
same,CPM bound,[1]; NORMAL PBM (N = 3),2750* CPM
same,binding to normal human macrophages,[1],bind specifically
same,Ratio */** (Human / Bovine A1 CPM),[2]; PREDIABETIC PBM (N = 3),0.31
same,CPM bound,[2]; PREDIABETIC PBM (N = 3),1400* CPM
same,binding to prediabetic macrophages,[2],bind specifically
same,binding site on the human macrophage,[3],specific binding site
Pro-Gly-Pro-Ile-His-Asn (PGPIHN; also: tritium label) [Bovine A1],phagocytic activity of murine macrophages,[4],stimulate the phagocytic activity
same,CPM bound,[1]; NORMAL PBM (N = 3),2220** CPM
same,binding to normal human macrophages,[1],bind specifically
same,CPM bound,[2]; PREDIABETIC PBM (N = 3),4500** CPM
same,binding to prediabetic macrophages,[2],bind specifically
peptide Val-54 to Tyr-59 from human β-casein (from UniProt P05814 69-74),CPM,[5],1400 CPM
same,CPM,[6],2750 CPM
same,Ratio */** (human CPM to bovine A1 CPM),[7],0.31
same,Ratio */** (human CPM to bovine A1 CPM),[8],1.2
B1,CPM,[5],4500 CPM
same,CPM,[6],2220 CPM
B2,CPM,[5],2750 CPM
same,CPM,[6],2900 CPM
B3,diabetogenic activity (words),[9],diabetogenic
same,Number of Animals Developing Diabetes by 250 days,[9],9
same,Percentage of animals developing diabetes by 250 days,[9],45%
same,diabetogenic activity (words),[9]; listed as A1 variant,does have diabetogenic activity
B4,diabetogenic activity (words),[9],is not
same,Number of Animals Developing Diabetes by 250 days,[9],0
same,Percentage of animals developing diabetes by 250 days,[9],0%
same,Number of Animals Developing Diabetes by 250 days,[9]; listed as A2 variants,no cases
same,diabetogenic activity (words),[9]; listed as A2 variant,do not show diabetogenic activity
